Reference: patent publication US20210277144A1 (SHANGHAI INSTITUTE OF BIOLOGICAL PRODUCTS, published 2021)
Like-named read-outs stand apart in the source and are kept apart here.

Key:
[1] = target: T1, HER3 extracellular domain recombinant protein (human, UniProt P21860 20-643); test: SPR, ProteOn XPR36; compared with the chimeric antibody
T1 construct: extracellular domain; also called HER3 extracellular domain protein; HER3 protein
Procedure: (§1) And the channels were turned to horizontal position, and Channels 1-5 were injected with 20 nM, 10 nM, 5 nM, 2.5 nM, 1.25 nM of samples of HER3 extracellular domain protein respectively, and Channel 6 was injected with buffer. 5 kinetic response curves were obtained, respectively representing the results of the reaction between different concentrations of antigen and the captured antibody. The Langmuir model was used to calculate the affinity constants KD (M) of each chimeric antibody and humanized antibody mutant.

[2] = target: T1, HER3 extracellular domain recombinant …; test: SPR, ProteOn XPR36; antibody captured by goat anti-human antibody, HER3 extracellular domain 1.25-20 nM as analyte, Langmuir model
Procedure: as §1

[3] = target: T1, HER3 extracellular domain recombinant …; test: as above; remark: listed apart in the source
Procedure: as §1

T1 sequence (P21860 20-643): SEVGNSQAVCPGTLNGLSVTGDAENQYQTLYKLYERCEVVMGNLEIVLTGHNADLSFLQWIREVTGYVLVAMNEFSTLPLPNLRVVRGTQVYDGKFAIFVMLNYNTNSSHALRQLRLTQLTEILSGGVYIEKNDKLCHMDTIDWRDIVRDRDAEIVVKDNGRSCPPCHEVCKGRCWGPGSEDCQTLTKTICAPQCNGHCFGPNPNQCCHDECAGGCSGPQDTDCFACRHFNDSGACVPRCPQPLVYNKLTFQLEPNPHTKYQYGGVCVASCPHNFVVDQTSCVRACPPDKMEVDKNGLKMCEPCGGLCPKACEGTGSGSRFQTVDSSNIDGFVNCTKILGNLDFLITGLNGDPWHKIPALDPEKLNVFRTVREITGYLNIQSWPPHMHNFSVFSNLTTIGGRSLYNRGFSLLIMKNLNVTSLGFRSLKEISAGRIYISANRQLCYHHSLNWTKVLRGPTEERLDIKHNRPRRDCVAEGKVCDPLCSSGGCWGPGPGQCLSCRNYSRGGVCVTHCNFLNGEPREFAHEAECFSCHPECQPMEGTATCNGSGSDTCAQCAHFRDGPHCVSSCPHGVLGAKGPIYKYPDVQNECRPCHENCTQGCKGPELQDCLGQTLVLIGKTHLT

| Binder | fold lower affinity than the chimeric antibody [1] [fold] | Kd [2] [nM] | koff [2] [s⁻¹] | kon [2] [M⁻¹ s⁻¹] | Kd [3] [nM] | koff [3] [s⁻¹] | kon [3] [M⁻¹ s⁻¹] | fold difference in affinity from the chimeric antibody [1] [fold] | fold of the affinity constant of the chimeric antibody [1] [fold] |
| --- | --- | --- | --- | --- | --- | --- | --- | --- | --- |
| humanized antibody h1044-0 (antibody, V domains shown, also called humanized h1044-0 antibody after CDR transplantation) VH: QVQLVQSGAEVKKPGSSVKVSCKASGGTFSNYWIDWVRQAPGQGLEWMGEILPGSGGTDYNEKFKGRVTITADTSTSTAYMELSSLRSEDTAVYYCARDDYDVFAYWGQGTLVTVSS VL: DIVMTQSPGTLSLSPGERATLSCRSSKSLLHSNGITYLYWYQQKPGQAPRLLIYQMSNLASGIPDRFSGSGSGTDFTLTISRLEPEDFAVYYCAQNLELPWTFGQGTKVEIKR | ~32 | 8.48 | 0.00427 | 503000 | – | – | – | – | – |
| humanized antibody hu1044-1 (VL69 back mutation) (antibody, human IgG1, V domains shown, h1044-0 with Gly to Ser at VL69) VH: QVQLVQSGAEVKKPGSSVKVSCKASGGTFSNYWIDWVRQAPGQGLEWMGEILPGSGGTDYNEKFKGRVTITADTSTSTAYMELSSLRSEDTAVYYCARDDYDVFAYWGQGTLVTVSS VL: DIVMTQSPGTLSLSPGERATLSCRSSKSLLHSNGITYLYWYQQKPGQAPRLLIYQMSNLASGIPDRFSSSGSGTDFTLTISRLEPEDFAVYYCAQNLELPWTFGQGTKVEIKR | – | – | – | – | 0.595 | 0.000502 | 843000 | ~2 | – |
| humanized antibody hu1044-3 (VL69, VH48 back mutation) (antibody, human IgG1, V domains shown) VH: QVQLVQSGAEVKKPGSSVKVSCKASGGTFSNYWIDWVRQAPGQGLEWIGEILPGSGGTDYNEKFKGRVTITADTSTSTAYMELSSLRSEDTAVYYCARDDYDVFAYWGQGTLVTVSS VL: DIVMTQSPGTLSLSPGERATLSCRSSKSLLHSNGITYLYWYQQKPGQAPRLLIYQMSNLASGIPDRFSSSGSGTDFTLTISRLEPEDFAVYYCAQNLELPWTFGQGTKVEIKR | – | – | – | – | 0.554 | 0.000494 | 882000 | – | ≤ 2 |
| humanized antibody hu1044 (VL69, VH38 back mutation) (antibody, V domains shown, also called final humanized antibody hu1044) VH: QVQLVQSGAEVKKPGSSVKVSCKASGGTFSNYWIDWVKQAPGQGLEWMGEILPGSGGTDYNEKFKGRVTITADTSTSTAYMELSSLRSEDTAVYYCARDDYDVFAYWGQGTLVTVSS VL: DIVMTQSPGTLSLSPGERATLSCRSSKSLLHSNGITYLYWYQQKPGQAPRLLIYQMSNLASGIPDRFSSSGSGTDFTLTISRLEPEDFAVYYCAQNLELPWTFGQGTKVEIKR | – | – | – | – | 0.442 | 0.000386 | 875000 | – | ≤ 2 |
| humanized antibody hu1044-6 (VL63/69, VH68 back mutation) (antibody, human IgG1, V domains shown) VH: QVQLVQSGAEVKKPGSSVKVSCKASGGTFSNYWIDWVRQAPGQGLEWMGEILPGSGGTDYNEKFKGRATITADTSTSTAYMELSSLRSEDTAVYYCARDDYDVFAYWGQGTLVTVSS VL: DIVMTQSPGTLSLSPGERATLSCRSSKSLLHSNGITYLYWYQQKPGQAPRLLIYQMSNLASGVPDRFSSSGSGTDFTLTISRLEPEDFAVYYCAQNLELPWTFGQGTKVEIKR | – | – | – | – | 0.42 | 0.00038 | 904000 | – | – |
| humanized antibody hu1044-4 (VL69, VH68 back mutation) (antibody, human IgG1, V domains shown) VH: QVQLVQSGAEVKKPGSSVKVSCKASGGTFSNYWIDWVRQAPGQGLEWMGEILPGSGGTDYNEKFKGRATITADTSTSTAYMELSSLRSEDTAVYYCARDDYDVFAYWGQGTLVTVSS VL: DIVMTQSPGTLSLSPGERATLSCRSSKSLLHSNGITYLYWYQQKPGQAPRLLIYQMSNLASGIPDRFSSSGSGTDFTLTISRLEPEDFAVYYCAQNLELPWTFGQGTKVEIKR | – | – | – | – | 0.461 | 0.000388 | 841000 | – | ≤ 2 |
| humanized antibody hu1044-5 (VL63/69, VH38 back mutation) (antibody, human IgG1, V domains shown) VH: QVQLVQSGAEVKKPGSSVKVSCKASGGTFSNYWIDWVKQAPGQGLEWMGEILPGSGGTDYNEKFKGRVTITADTSTSTAYMELSSLRSEDTAVYYCARDDYDVFAYWGQGTLVTVSS VL: DIVMTQSPGTLSLSPGERATLSCRSSKSLLHSNGITYLYWYQQKPGQAPRLLIYQMSNLASGVPDRFSSSGSGTDFTLTISRLEPEDFAVYYCAQNLELPWTFGQGTKVEIKR | – | – | – | – | 0.419 | 0.000353 | 844000 | – | – |
| 1044 human-mouse chimeric antibody (antibody, V domains shown) VH: EVQLQQSGTELMKPGASVKISCKATGGTFSNYWIDWVKQRPGHGLEWIGEILPGSGGTDYNEKFKGKATFTADTSSNTAYMQLSSLTSEDSAVYYCARDDYDVFAYWGQGTLVTVSA VL: DIVMTQAAFSNPVTLGTSASISCRSSKSLLHSNGITYLYWYLQKPGQSPQLLIYQMSNLASGVPDRFSSSGSGTDFTLRISRVEAEDVGVYYCAQNLELPWTFGGGTKLEIKR | – | 0.262 | 0.000229 | 874000 | 0.278 | 0.000293 | 1.05e+06 | – | – |

The remaining lines, values ahead:

| fold lower affinity than the chimeric antibody [1] [fold] | Kd [2] [nM] | koff [2] [s⁻¹] | kon [2] [M⁻¹ s⁻¹] | Kd [3] [nM] | koff [3] [s⁻¹] | kon [3] [M⁻¹ s⁻¹] | fold difference in affinity from the chimeric antibody [1] [fold] | fold of the affinity constant of the chimeric antibody [1] [fold] | Binder |
| --- | --- | --- | --- | --- | --- | --- | --- | --- | --- |
| – | – | – | – | 0.375 | 0.000376 | 1e+06 | – | – | humanized antibody hu1044-7 (VL63/69, VH67/68 back mutation) (antibody, human IgG1, V domains shown) VH: QVQLVQSGAEVKKPGSSVKVSCKASGGTFSNYWIDWVRQAPGQGLEWMGEILPGSGGTDYNEKFKGKATITADTSTSTAYMELSSLRSEDTAVYYCARDDYDVFAYWGQGTLVTVSS VL: DIVMTQSPGTLSLSPGERATLSCRSSKSLLHSNGITYLYWYQQKPGQAPRLLIYQMSNLASGVPDRFSSSGSGTDFTLTISRLEPEDFAVYYCAQNLELPWTFGQGTKVEIKR |
| – | 7.07 | 0.00327 | 463000 | – | – | – | – | – | humanized antibody with VH77 back mutation (antibody, V domains shown) VH: QVQLVQSGAEVKKPGSSVKVSCKASGGTFSNYWIDWVRQAPGQGLEWMGEILPGSGGTDYNEKFKGRVTITADTSTNTAYMELSSLRSEDTAVYYCARDDYDVFAYWGQGTLVTVSS VL: DIVMTQSPGTLSLSPGERATLSCRSSKSLLHSNGITYLYWYQQKPGQAPRLLIYQMSNLASGIPDRFSGSGSGTDFTLTISRLEPEDFAVYYCAQNLELPWTFGQGTKVEIKR |
| – | 6.02 | 0.00317 | 525000 | – | – | – | – | – | humanized antibody with VH25 back mutation (antibody, V domains shown) VH: QVQLVQSGAEVKKPGSSVKVSCKATGGTFSNYWIDWVRQAPGQGLEWMGEILPGSGGTDYNEKFKGRVTITADTSTSTAYMELSSLRSEDTAVYYCARDDYDVFAYWGQGTLVTVSS VL: DIVMTQSPGTLSLSPGERATLSCRSSKSLLHSNGITYLYWYQQKPGQAPRLLIYQMSNLASGIPDRFSGSGSGTDFTLTISRLEPEDFAVYYCAQNLELPWTFGQGTKVEIKR |
| – | 6.49 | 0.00344 | 531000 | – | – | – | – | – | humanized antibody with VH76 back mutation (antibody, V domains shown) VH: QVQLVQSGAEVKKPGSSVKVSCKASGGTFSNYWIDWVRQAPGQGLEWMGEILPGSGGTDYNEKFKGRVTITADTSSSTAYMELSSLRSEDTAVYYCARDDYDVFAYWGQGTLVTVSS VL: DIVMTQSPGTLSLSPGERATLSCRSSKSLLHSNGITYLYWYQQKPGQAPRLLIYQMSNLASGIPDRFSGSGSGTDFTLTISRLEPEDFAVYYCAQNLELPWTFGQGTKVEIKR |
| – | 9.14 | 0.00382 | 418000 | – | – | – | – | – | humanized antibody with VH1 back mutation (antibody, V domains shown) VH: EVQLVQSGAEVKKPGSSVKVSCKASGGTFSNYWIDWVRQAPGQGLEWMGEILPGSGGTDYNEKFKGRVTITADTSTSTAYMELSSLRSEDTAVYYCARDDYDVFAYWGQGTLVTVSS VL: DIVMTQSPGTLSLSPGERATLSCRSSKSLLHSNGITYLYWYQQKPGQAPRLLIYQMSNLASGIPDRFSGSGSGTDFTLTISRLEPEDFAVYYCAQNLELPWTFGQGTKVEIKR |
